The record followed here is paper PMC9982066, “Inhibition of Ehrlichia chaffeensis infection by cell-permeable macrocyclic peptides that bind type IV secretion effector Etf-1” (PNAS Nexus, 2023).

Starred links: 1 amine or outer side, 2 acyl side, 3 side chain; linkers in the order of their positions; H or OH if unused. Positions of bridges follow the written chain, without caps; N, C: chain ends. Non-standard residues stand in square brackets, D forms with d. No end group written: not given here. Trimesoyl = O=C(c1cc(C(=O)[*:2])cc(C(=O)[*:3])c1)[*:1]; Phe(4-Cl) = N[C@@H](Cc1ccc(Cl)cc1)C(=O)O; Phe(4-F) = N[C@@H](Cc1ccc(F)cc1)C(=O)O; 2Nal = N[C@@H](Cc1ccc2ccccc2c1)C(=O)O; d2Nal = N[C@H](Cc1ccc2ccccc2c1)C(=O)O; βAsp = O=C(O)[C@H](CC(=O)[*:2])N[*:1]; Nle = CCCC[C@H](N)C(=O)O; Orn = NCCC[C@H](N)C(=O)O; Dap = NC[C@H](N)C(=O)O; TMA = not defined here; βAla = NCCC(=O)O

The term Kd denotes the free concentration of one partner at which half of the binding sites on the other are occupied at equilibrium, for simple one-to-one binding.

The chains are these.
B1: FAM-labeled macrocyclic peptide B13 (peptide)
chain: EHFEHAXFXRRRX
modifications: not fully specified; carboxyfluorescein (FAM) at the C-terminus through a β-Ala-β-Ala-Lys linker
B2: FAM-labeled macrocyclic peptide B22 (peptide)
chain: VXNHAXFXRRRRX
modifications: not fully specified; carboxyfluorescein (FAM) at the C-terminus through a β-Ala-β-Ala-Lys linker
B3: FAM-labeled macrocyclic peptide B7-133-5 (peptide)
chain: YDHDHLXFXRRRRX
modifications: not fully specified; same peptide as Dm35 (Table S3); bicyclic via TMA to Dap7 and Dap14; D2=isoAsp, D-Leu6, X7/X14=Dap, F8=4-chloro-Phe, X9=D-2-Nal, D-Arg10, D-Arg12; linker Lys(FAM) left out
B4: FAM-labeled macrocyclic peptide B17 (peptide)
chain: XFGDYXFXRRRRX
modifications: not fully specified; carboxyfluorescein (FAM) at the C-terminus through a β-Ala-β-Ala-Lys linker
B5: macrocyclic peptide C19, FAM-labelled (peptide)
chain: IHA[Orn][dK][Dap]F[2Nal]RRR[Dap]
modifications: linker 6-12 via TMA; not fully specified (C-terminus); reading uncertain
B6: macrocyclic peptide C6, FAM-labelled (peptide)
chain: QHS[dV][Dap][dF][2Nal]R[dR]R[Dap]
modifications: linker 5-11 via TMA; not fully specified (C-terminus); reading uncertain
B7: macrocyclic peptide B22, FAM-labelled (peptide)
chain: [dV][Orn][dN]H[dA][Dap]F[d2Nal][dR]R[dR]R[Dap]-{βAla-βAla-Lys(FAM)}
modifications: linker 6-13 via TMA; reading uncertain; also: TMA third attachment point not given here
B8: macrocyclic peptide C9, FAM-labelled (peptide)
chain: IDA[Nle]H[Dap]F[2Nal]RRR[Dap]
modifications: linker 6-12 via TMA; not fully specified (C-terminus); reading uncertain
B9: macrocyclic peptide B7-133-5, FAM-labelled (peptide)
chain: Y[βAsp]HDH[dL][Dap][Phe(4-Cl)][d2Nal][dR]R[dR]R[Dap]-{Lys(FAM)}
modifications: linker N-7-14 via Trimesoyl; not fully specified (N-terminus)
B10: macrocyclic peptide B7-133-2, FAM-labelled (peptide)
chain: Y[dA]D[dY][dA][dL][Dap][Phe(4-Cl)][d2Nal][dR]R[dR]R[Dap]-{Lys(FAM)}
modifications: linker N-7-14 via Trimesoyl; not fully specified (N-terminus)
B11: macrocyclic peptide B7-131-2, FAM-labelled (peptide)
chain: YH[d2Nal]QS[Phe(4-F)][dL][Dap][Phe(4-Cl)][d2Nal][dR]R[dR]R[Dap]-{Lys(FAM)}
modifications: linker N-8-15 via Trimesoyl; not fully specified (N-terminus)
B12: macrocyclic peptide B7-133-4, FAM-labelled (peptide)
chain: Y[Nle][dE]QG[dL][Dap][Phe(4-Cl)][d2Nal][dR]R[dR]R[Dap]-{Lys(FAM)}
modifications: linker N-7-14 via Trimesoyl; not fully specified (N-terminus)
B13: biotinylated full-length Etf-1 protein (natural protein, E. chaffeensis, UniProt Q2GG12 1-380, looked up)
chain: MLTFLKKGANVVIKAAITPTTSKLPHQESVGKYLGGMLKSIIPGQKDPAEKHFDLRMHNRTHKLGVELPARTRIDGHEQEVALKVPSYKLPYQTLQKFAAWQEQDKEGEVEETKKDTLTSLINPVSATQEFIRSNTADKYFEKLKALDQQLKEIGGKVTVNSTPGRYKQGLTIELDVSNKSRIAIEKDVRLVLEGLGINDEELVKTFTKRLYKSSTDKKMSSADIHTEKTSSNTDSKDNSNNQDHDIVSPAKRHGSDTVSAVQRQGDDILSSSQEQSSKTGSPTNSTGISNSDFSLTNPQNMPYSRTPMQSSQMLQQLQNQILMQQKPERIFSQAMPTVMQQEIDEIAEDLCQGLNEGPTQGNSNNIGKHFSNPGKVHAR
modifications: biotin (two equivalents of NHS-PEG4-D-Biotin, pH 8.0)
notes: source: E. coli BL21(DE3), purified (HisPur Cobalt resin, size exclusion chromatography), then biotinylated

The target of one test is Ehrlichia translocated factor-1 (Etf-1), recombinant 6×His-Etf-1 fusion protein (E. chaffeensis, UniProt Q2GG12 1-380). As to the kind of experiment: fluorescence polarisation. The conditions noted are these: both partners purified.
As for B1, the Kd was greater than 25 µM.
With B2, the Kd was greater than 25 µM.
With B3, the Kd was greater than 10 µM.
On to B4, for which the Kd is greater than 25 µM.

Another test deals with T1, Ehrlichia translocated factor-1 (Etf-1) (Ehrlichia chaffeensis, UniProt Q2GG12 1-380). Briefly: fluorescence polarisation. The conditions noted are these: both partners purified.
In the case of B5, the Kd was greater than 25 µM.
Consider B6, for which the Kd is greater than 25 µM.
On the same count and under the same terms, the figure for B7 is greater than 25 µM; for B8 it is greater than 25 µM.

Another test deals with T1, Ehrlichia translocated factor-1 (Etf-1). As to the kind of experiment: fluorescence polarisation. The conditions noted are these: both partners purified. The source holds these as a separate data set. A general note: Polarisation of emitted light reports the rotation of a fluorescent probe.
As to B9, the Kd is greater than 10 µM.
In turn, B10 displayed a Kd of 8.2 ± 1.2 µM.
On to B11, for which the Kd is 8.8 ± 0.9 µM.
Still for that read-out and setting: in the case of B12 it was 6.5 ± 0.1 µM.

The target of a further test is T2, recombinant full-length BECN1 protein (Beclin 1) (human, UniProt Q14457 1-450).
T2 construct: also called ATG6; source: size exclusion chromatography
T2 sequence (Q14457 whole entry): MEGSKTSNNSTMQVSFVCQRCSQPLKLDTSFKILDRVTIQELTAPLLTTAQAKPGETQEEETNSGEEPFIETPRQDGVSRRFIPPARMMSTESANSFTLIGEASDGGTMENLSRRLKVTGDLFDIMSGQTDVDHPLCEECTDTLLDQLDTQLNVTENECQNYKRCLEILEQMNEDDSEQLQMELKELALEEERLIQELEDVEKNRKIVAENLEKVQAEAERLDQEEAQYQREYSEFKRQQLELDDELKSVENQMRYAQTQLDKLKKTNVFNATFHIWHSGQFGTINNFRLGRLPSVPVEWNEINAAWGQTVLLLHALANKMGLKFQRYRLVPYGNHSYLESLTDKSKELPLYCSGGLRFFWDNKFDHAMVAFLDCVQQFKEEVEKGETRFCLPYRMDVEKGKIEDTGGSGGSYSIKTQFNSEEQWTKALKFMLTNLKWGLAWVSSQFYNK
As to the kind of experiment: SPR; OpenSPR; biotinylated rEtf-1 (1 μM) immobilised on a streptavidin sensor chip, BECN1 dilutions as analyte; 20 mM Tris pH 8.0, 100 mM NaCl, 0.05% Tween 20; 30 µL/min. The conditions noted are these: both partners purified. On the technique in general: In SPR one partner is held on a chip, and binding of the other changes the refractive index at the surface.
In the case of B13, the Kd stood at 0.06 ± 0.001 µM.
